Read-outs that look alike come from different tables or passages of the source. Each block holds one binder with its values, some of them ahead of it.
Columns and labels:
Assay in all cases: SPR
[1] = target: T1, EVA-1 (UniProt P0C8E7 21-114, biotin on the Avi-tag (Bir-A ligase))
T1 sequence (looked up): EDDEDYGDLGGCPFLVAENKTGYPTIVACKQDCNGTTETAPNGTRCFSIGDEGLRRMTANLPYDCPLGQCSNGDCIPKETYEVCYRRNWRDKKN

[2] = target: T2, EVA-P974 (UniProt A0A023FDY8 22-118, biotin on the Avi-tag (Bir-A ligase))
T2 sequence (looked up): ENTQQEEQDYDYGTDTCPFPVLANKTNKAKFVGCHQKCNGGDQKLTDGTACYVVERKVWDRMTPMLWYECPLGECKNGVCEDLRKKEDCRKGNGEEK

[3] = target: T3, EVA-4 (UniProt P0C8E9 24-127, biotin on the Avi-tag (Bir-A ligase))
T3 sequence (looked up): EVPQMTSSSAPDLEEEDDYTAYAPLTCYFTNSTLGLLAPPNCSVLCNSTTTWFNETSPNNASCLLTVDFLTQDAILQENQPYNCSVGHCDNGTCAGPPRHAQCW

[4] = target: T2, EVA-P974; remark: listed apart in the source

- Kd [1]: 60.7 nM
- Kd [2]: 1.8 nM
B1: CCL4 (ligand, human, UniProt P13236 24-92, looked up)
chain: APMGSDPPTACCFSYTARKLPRNFVVDYYETSSLCSQPAVVFQTKRSKQVCADPSESWVQEYVYDLELN

- Kd [2]: 0.5 nM
B2: CCL13 (ligand)
chain: not shown

- Kd [3]: 0.8 nM
- Kd [2]: 4.4 nM
B3: CCL7 (ligand)
chain: not shown

- Kd [3]: 6.1 nM
B4: CCL5 (ligand, human, UniProt P13501 24-91, looked up)
chain: SPYSSDTTPCCFAYIARPLPRAHIKEYFYTSGKCSNPAVVFVTRKNRQVCANPEKKWVREYINSLEMS

- Kd [3]: 4.1 nM
- Kd [2]: 0.1 nM
- Kd [4]: < 0.1 nM
B5: CCL16 (ligand, human, UniProt O15467 24-120, looked up)
chain: QPKVPEWVNTPSTCCLKYYEKVLPRRLVVGYRKALNCHLPAIIFVTKRNREVCTNPNDDWVQEYIKDPNLPLLPTRNLSTVKIITAKNGQPQLLNSQ

- Kd [3]: 20 nM
- Kd [2]: 0.3 nM
B6: CCL11 (ligand)
chain: not shown

- Kd [3]: 376 nM
- Kd [2]: 15 nM
B7: CCL1 (ligand, human, UniProt P22362 24-96, looked up)
chain: KSMQVPFSRCCFSFAEQEIPLRAILCYRNTSSICSNEGLIFKLKRGKEACALDTVGWVQRHRKMLRHCPSKRK

- Kd [3]: 0.4 nM
- Kd [1]: 192 nM
- Kd [2]: 0.6 nM
B8: CCL18 (ligand, human, UniProt P55774 21-89, looked up)
chain: AQVGTNKELCCLVYTSWQIPQKFIVDYSETSPQCPKPGVILLTKRGRQICADPNKKWVQKYISDLKLNA

- Kd [3]: 283 nM
- Kd [2]: 23 nM
B9: CCL17 (ligand, human, UniProt Q92583 24-94, looked up)
chain: ARGTNVGRECCLEYFKGAIPLRKLKTWYQTSEDCSRDAIVFVTVQGRAICSDPNNKRVKNAVKYLQSLERS

- Kd [3]: 0.4 nM
- Kd [2]: 0.03 nM
- Kd [4]: < 0.1 nM
B10: CCL8 (ligand, human, UniProt P80075 24-99, looked up)
chain: QPDSVSIPITCCFNVINRKIPIQRLESYTRITNIQCPKEAVIFKTKRGKEVCADPKERWVRDSMKHLDQIFQNLKP

- Kd [3]: 1.1 nM
- Kd [1]: 92 nM
- Kd [2]: 1.8 nM
B11: CCL14 (ligand, human, UniProt Q16627 20-93, looked up)
chain: TKTESSSRGPYHPSECCFTYTTYKIPRQRIMDYYETNSQCSKPGIVFITKRGHSVCTNPSDKWVQDYIKDMKEN

- Kd [3]: 55 nM
B12: CCL24 (ligand, human, UniProt O00175 27-119, looked up)
chain: VVIPSPCCMFFVSKRIPENRVVSYQLSSRSTCLKAGVIFTTKKGQQFCGDPKQEWVQRYMKNLDAKQKKASPRARAVAVKGPVQRYPGNQTTC

- Kd [3]: 0.2 nM
- Kd [1]: 0.21 nM
- Kd [2]: 0.6 nM
B13: CCL3 (ligand, human, UniProt P10147 24-92, looked up)
chain: SLAADTPTACCFSYTSRQIPQNFIADYFETSSQCSKPGVIFLTKRSRQVCADPSEEWVQKYVSDLELSA

- Kd [3]: 240 nM
B14: CCL15 (ligand, human, UniProt Q16663 22-113, looked up)
chain: QFTNDAETELMMSKLPLENPVVLNSFHFAADCCTSYISQSIPCSLMKSYFETSSECSKPGVIFLTKKGRQVCAKPSGPGVQDCMKKLKPYSI

- Kd [3]: 8.5 nM
- Kd [2]: 1.8 nM
B15: CCL22 (ligand, human, UniProt O00626 25-93, looked up)
chain: GPYGANMEDSVCCRDYVRYRLPLRVVKHFYWTSDSCPRPGVVLLTFRDKEICADPRVPWVKMILNKLSQ

- Kd [3]: 7.4 nM
B16: CCL23 (ligand, human, UniProt P55773 22-120, looked up)
chain: RVTKDAETEFMMSKLPLENPVLLDRFHATSADCCISYTPRSIPCSLLESYFETNSECSKPGVIFLTKKGRRFCANPSDKQVQVCMRMLKLDTRIKTRKN

— paper PMC9478924 (The Journal of Biological Chemistry, 2022)
